In US10358638B2, “Method of producing 1,5-pentadiamine using lysine decarboxylase mutant having improved thermal stability” (AJINOMOTO CO., INC., priority 2014, dated 2019):

Key:
[1] = Enzyme activity of culture media of expressing strains after heat treatment with or without disruption; format: cell-based, Escherichia coli
Protocol: (§1) The activity of the lysine decarboxylase was measured according to the method described in JP patent application laid-open Publication No. 2008-193899. 0.1 mL of a microbial cell suspension or a treated product thereof was added to 1 mL of a reaction solution containing 100 mM MES-NaOH buffer (pH 6.0), 10 g/L (55 mM) of L-lysine hydrochloride and 26.5 mg/L (0.1 mM) of PLP, and then the reaction mixture was incubated at 37° C. for 5 minutes. 0.1 mL of the reaction solution was collected and added to 1 mL of 1% (v/v) phosphoric acid to stop the reaction. Lysine and 1,5-PD were quantified with HPLC by a post column OPA method (S. R. Vale and M. B. Gloria, Journal Of AOAC International (1997) vol. 80, p. 1006-1012) or a method of quantifying remaining L-lysine using a biosensor BF-5 (Oji Scientific Instruments Co., Ltd.). One unit was defined as an activity that formed 1 μmol of 1,5-PD in one minute under this condition.
Microbial cells of E. coli JM109/pCadA220 and E. coli JM109/pCadA234 carrying the wild-type CadA and the double mutant CadA, respectively were cultured in the LB medium. Subsequently, 15 mL of the cultured medium was inoculated into 300 mL of culture medium (25 g/L of glucose, 5 g/L of ammonium sulfate, 2 g/L of potassium phosphate, 1 g/L of magnesium sulfate heptahydrate, 20 mg/L of iron sulfate heptahydrate, 20 mg/L of manganese sulfate pentahydrate, 1 mg/L of thiamine hydrochloride, 0.45 g/L of hydrolyzed soybeans, pH 7.0) in a 500 mL jar fermenter (manufactured by ABLE & Biott Co., Ltd.), and cultured with ventilation at 300 mL/minute while stirring at 250 rpm at 30° C. for 12 hours. Culture media containing 10.1 g/L and 10.9 g/L of microbial cells in terms of dry microbial cell weight were able to be prepared for E. coli JM109/pCadA220 and E. coli JM109/pCadA234, respectively. For the purpose of improving substrate permeability, the pH value was adjusted to 5.5, and subsequently the culture media were incubated at 55° C. and 60° C., and then the culture media were directly used to measure the activity after the incubation.
Since the lysine decarboxylase is expressed within the microbial cell, when the microbial cell is used directly, lysine cannot react with the lysine decarboxylase, and the efficiency of a decarboxylation reaction is very poor. […] However, the wild-type enzyme was inactivated during the incubation when heated excessively. The mutated enzyme having the improved thermal stability could stably keep its activity even when using conditions where the wild-type enzyme was easily inactivated as shown in Example 2. When the microbial cells carrying such a mutated enzyme were used, efficient treatment in a short period of time was possible. This has shown that the mutated enzyme not only can act at higher temperature upon reaction but also can be easily used when the microbial cell is directly used.

[2] = Remaining lysine decarboxylase activity of cell free extract after incubation at 68° C.; format: biochemical, Escherichia coli; details: 68° C., 1 hour, FIG. 1
Protocol: as §1
A combination mutant for increasing the amount of expressed CadA was constructed using QuikChange™ Site-Directed Mutagenesis Kit (Stratagene). A mutation to alter from Val (GTT) to Ile ([…]) at position 3 was introduced using the plasmid pCadA233 as the template and using oligonucleotides v3i_r (5′-cat gtg att caa tat tgc aat aat gtt cat cta cat tcc tcc tta cg-3′(SEQ ID NO:11)) and v3i_f (5′-cgt aag gag gaa tgt aga tga aca tta ttg caa tat tga atc aca tg-3′ (SEQ ID NO:12)) as primers according to a protocol. The nucleotide sequence of the constructed plasmid was determined by the method described in Example 2 to confirm that the objective mutation had been introduced, and this plasmid was designated as pCadA234. Microbial cells of E. coli JM109/pCadA234 expressing this double mutant CadA234 at high level were cultured to prepare a cell free extract in the same manner as in Example 2. The activity in this cell free extract was 663 U/mL, which was almost the same as that from the strain expressing the wild-type enzyme.
The resulting cell free extract was diluted to 20 fold with 0.1 M MES-NaOH buffer (pH 6.0). Each crude enzyme solution was incubated at 68° C., which is a higher temperature than in Example 2, and the remaining activity was measured over time. After incubation at 68° C. for one hour, the wild-type enzyme was inactivated to 27% while the single mutant enzymes V3I and A590T were inactivated to 47% and 27%, respectively. On the contrary, the double mutant enzyme retained 70% of its activity, and even after 3 hours, still retained about 60% of its activity (FIG. 1). Therefore, it was shown that the double mutation has a synergistic effect and further improved the thermal stability.

[3] = Inhibition of enzyme activity by iron ion and effect of chelating agent EDTA; format: biochemical, Escherichia coli
Protocol: as §1
Cell free extracts were prepared from the strain expressing wild-type CadA and the strain overexpressing double mutant CadA, respectively in the same manner as in Examples 2 and 3. Using the resulting cell free extract, iron sulfate heptahydrate (Nacalai Tesque Inc.) at a final concentration of […] (2 mM) was added to the composition shown in Example 1, and an inhibitory effect was measured. […]

[4] = Remaining lysine decarboxylase activity of cell free extract after incubation at 65° C.; format: biochemical, Escherichia coli
Protocol: as §1
Each transformant was inoculated to 50 mL of L medium in a 500 mL Sakaguchi flask containing 100 μg/mL of ampicillin and cultured with shaking at 30° C. for 16 hours. Microbial cells were collected from the cultured medium by centrifugation, washed once with saline, subsequently suspended in 5 mL of 100 mM potassium phosphate buffer (pH 7.0), and disrupted by sonication at 4° C. for 20 minutes. An insoluble fraction was removed by centrifuging the lysate solution at 8,000 rpm for 10 minutes to prepare a cell free extract.
The resulting cell free extract was diluted 20 fold with 100 mM MES-NaOH buffer (pH 6.0). This crude enzyme solution was incubated at 65° C., and its remaining activity after 3 and 5 hours was measured by the method described in Example 1. As a result, the activity in the crude enzyme solution from the strain expressing the mutated enzyme before incubation was almost the same as that from the strain expressing the wild-type enzyme (Table 3).

[5] = Incubation at 55° C. for 1 h, Disruption
[6] = Incubation at 55° C. for 1 h, physical treatment None
[7] = Incubation at 55° C. for 3 h, Disruption
[8] = Incubation at 55° C. for 3 h, physical treatment None
[9] = Incubation at 60° C. for 1 h, Disruption
[10] = Incubation at 60° C. for 1 h, physical treatment None
[11] = No heat treatment, physical treatment None
[12] = cell free extract diluted 20 fold, before heating

B1: pCadA220: wild-type lysine decarboxylase (CadA) derived from Escherichia coli W3110, expressed from plasmid pCadA220 (protein, UniProt P0A9H3 1-715, looked up)
Inducible lysine decarboxylase: MNVIAILNHMGVYFKEEPIRELHRALERLNFQIVYPNDRDDLLKLIENNARLCGVIFDWDKYNLELCEEISKMNENLPLYAFANTYSTLDVSLNDLRLQISFFEYALGAAEDIANKIKQTTDEYINTILPPLTKALFKYVREGKYTFCTPGHMGGTAFQKSPVGSLFYDFFGPNTMKSDISISVSELGSLLDHSGPHKEAEQYIARVFNADRSYMVTNGTSTANKIVGMYSAPAGSTILIDRNCHKSLTHLMMMSDVTPIYFRPTRNAYGILGGIPQSEFQHATIAKRVKETPNATWPVHAVITNSTYDGLLYNTDFIKKTLDVKSIHFDSAWVPYTNFSPIYEGKCGMSGGRVEGKVIYETQSTHKLLAAFSQASMIHVKGDVNEETFNEAYMMHTTTSPHYGIVASTETAAAMMKGNAGKRLINGSIERAIKFRKEIKRLRTESDGWFFDVWQPDHIDTTECWPLRSDSTWHGFKNIDNEHMYLDPIKVTLLTPGMEKDGTMSDFGIPASIVAKYLDEHGIVVEKTGPYNLLFLFSIGIDKTKALSLLRALTDFKRAFDLNLRVKNMLPSLYREDPEFYENMRIQELAQNIHKLIVHHNLPDLMYRAFEVLPTMVMTPYAAFQKELHGMTEEVYLDEMVGRINANMILPYPPGVPLVMPGEMITEESRPVLEFLQMLCEIGAHYPGFETDIHGAYRQADGRYTVKVLKEESKK
Q: Which Enzyme activity [1, 5] does the source give for B1 here?
A: Its Enzyme activity is 819 units/ml.

Q: What about the Relative activity [1, 5] of the same molecule?
A: The Relative activity was 89.6%.

Q: And the Enzyme activity [1, 6]?
A: The Enzyme activity was 246 units/ml.

Q: And the Relative activity [1, 6]?
A: Its Relative activity is 26.9%.

Q: What about the Enzyme activity [1, 7] of the same molecule?
A: Its Enzyme activity is 730 units/ml.

Q: What about the Relative activity [1, 7] of the same molecule?
A: Its Relative activity is 79.9%.

Q: What about the Enzyme activity [1, 8] of the same molecule?
A: The Enzyme activity was 375 units/ml.

Q: What about the Relative activity [1, 8] of the same molecule?
A: The Relative activity was 41.0%.

Q: What about the Enzyme activity [1, 9] of the same molecule?
A: Its Enzyme activity is 798 units/ml.

Q: What about the Relative activity [1, 9] of the same molecule?
A: Its Relative activity is 87.3%.

Q: And the Enzyme activity [1, 10]?
A: Its Enzyme activity is 282 units/ml.

Q: What about the Relative activity [1, 10] of the same molecule?
A: Its Relative activity is 30.9%.

Q: What about the Enzyme activity ([1]; No heat treatment, Disruption) of the same molecule?
A: The Enzyme activity was 914 units/ml.

Q: What about the Relative activity ([1]; No heat treatment, Disruption) of the same molecule?
A: Its Relative activity is 100%.

Q: And the Enzyme activity [1, 11]?
A: Its Enzyme activity is 17.5 units/ml.

Q: And the Relative activity [1, 11]?
A: Its Relative activity is 1.9%.

Q: What about the “remaining activity after incubation at 68° C. for one hour” value [2] of the same molecule?
A: Its value is 27%.

Q: What about the “activity with 2 mM iron ion, of the activity when no iron ion was added” value ([3]; 2 mM iron ion, no EDTA) of the same molecule?
A: Its value is 46.8%.

Q: And the Enzyme activity ([3]; FeSO4 2 mM, EDTA 0.5 mM)?
A: The Enzyme activity was 827 units/ml.

Q: And the Enzyme activity ([3]; FeSO4 2 mM, EDTA 1 mM)?
A: The Enzyme activity was 856 units/ml.

Q: What about the Enzyme activity ([3]; FeSO4 2 mM, EDTA 2 mM) of the same molecule?
A: Its Enzyme activity is 821 units/ml.

Q: What about the Enzyme activity ([3]; FeSO4 2 mM, EDTA 4 mM) of the same molecule?
A: The Enzyme activity was 840 units/ml.

Q: And the Enzyme activity ([3]; FeSO4 2 mM, EDTA 5 mM)?
A: Its Enzyme activity is 832 units/ml.

Q: What about the Enzyme activity ([3]; FeSO4 2 mM, EDTA None) of the same molecule?
A: The Enzyme activity was 398 units/ml.

Q: What about the Enzyme activity ([3]; FeSO4 None, EDTA 2 mM) of the same molecule?
A: The Enzyme activity was 840 units/ml.

Q: And the Enzyme activity ([3]; FeSO4 None, EDTA None)?
A: The Enzyme activity was 850 units/ml.

Q: What about the “Activity after incubation at 65° C. for 3 h” value ([4]; 65° C., 3 h) of the same molecule?
A: The value was 413 Units/mL.

Q: What about the “Remaining activity after incubation at 65° C. for 3 h” value ([4]; 65° C., 3 h, relative to before heating) of the same molecule?
A: The value was 59.2%.

Q: What about the “Activity after incubation at 65° C. for 5 h” value ([4]; 65° C., 5 h) of the same molecule?
A: The value was 360 Units/mL.

Q: And the “Remaining activity after incubation at 65° C. for 5 h” value ([4]; 65° C., 5 h, relative to before heating)?
A: The value was 51.6%.

Q: What about the “Remaining activity after incubation at 65° C. for 5 h” value ([4]; 65° C., 5 h, relative to before heating, listed as wild-type enzyme) of the same molecule?
A: Its value is “reduced by half”.

Q: And the Activity before heating [4, 12]?
A: The Activity before heating was 697 Units/mL.

Q: And the “Activity before heating, remaining activity” value [4, 12]?
A: Its value is 100%.
